The record followed here is patent publication US12410253B2, “Compositions comprising anti-NRP2 antibodies” (aTyr Pharma, Inc., priority 2019, dated 2025).

Entries after “also recorded” stand apart in the source; their conditions may differ.

For series [1], the system named is MDA-MB-231 cells. As to conditions: mouse, in vivo.
Experimental: The dosing regimen was initiated when the mean tumor volume of all study animals reached 50-100 mm^3.
Treatment Regimen. Twenty (20) NSG mice (Jackson Laboratory, female, 5-6 wks old) were used in this study. The animals were assigned to two study groups of 10 mice randomly. The MDA-MB-231 cell line was prepared for injection as described in the Materials and Methods.
1.25×10^6 cancer cells in PBS with 20% matrigel were injected orthotopically into the mammary fat pad. The day on which the tumor was implanted is designated as Day 0.
Series [2] relates to 4T1 tumors. Kind of series: 4T1 model of spontaneous metastasis in Balb/c mice. The format is in vivo. The method, then:
The test antibody dosing regimen was initiated one day before cell injection and animal weights and tumor measurements were recorded three times a week until study termination.
Mouse 4T1 cell line was purchased from ATCC. […] 50,000 cancer cells in PBS were implanted subcutaneously into the right flank of each mouse.
Treatment Regimen. […] The animals were assigned to 3 study groups of 10 mice randomly, and housed as described in the Materials and Methods. The antibody dosing regimen is shown in Table E5 below; in brief animals received intraperitoneal injections of 10 mg/kg of the control IgG antibody, and aNRP2-28 (as described in the Materials and Methods), administered according to the protocol below (Table E5); starting one day before cancer cell implantation until termination on day 23).

Series [3] has as its system neo-lymphangiogenesis of the cornea. Kind of series: Corneal alkali-burn injury model of neovascularization (LYVE-1 staining). The format is in vivo, mouse. The conditions noted are these: IP on Day 0, 3, 7 and 10; Day 14; compared to IgG control; p=0.07. The method, then: Study Design & Treatment Regimen. The study consisted of 40 female C57BL/6 mice separated into four groups. Prior to study, animals were randomized into four groups, 10 mice per group. On Day 0, neovascularization (NV) of the cornea was induced from alkali-burn injury in the eyes of animals under anesthesia. Animals were treated intraperitoneally with control IgG (Group 1), aNRP2-28 (Group 2) and Bevacizumab (Group 3) on post-injury Day 0, 3, 7 and 10. During the in-life phase, animals were monitored with daily clinical observations and weekly body weights. Additionally, ocular assessments of injured eyes were scored and photos taken on post-injury Day 7 and Day 14. All animals were euthanized on Day 14. Injured eyes from all animals were removed and dissected. Whole-mounted corneas were fixed, stained with LYVE-1, and analyzed immunohistochemically to examine the efficacy of Test Articles.

Series [4] has as its system B16-F10 tumors. Kind of series: B16-F10 mouse melanoma in C57BL/6 mice. The class given is in vivo. The protocol:
Animals and Animal husbandry. All mice were ear tagged for identification purpose. Upon arrival, animals were examined to ensure that they were healthy. The animals were housed in autoclaved solid floor polycarbonate cages. Housing and sanitation were performed according to industry standards. All animal handling was performed in a laminar flow hood located in a clean room. In all experiments, euthanasia criteria were set for an upper limit on subcutaneous tumor volume (usually >2,000 mm^3) and body weight loss (usually >20% body weight loss for an individual during the study). Animal work was performed at either Comparative Biosciences, Inc., 786 Lucerne Dr., Sunnyvale, CA 94085 or at aTyr Pharma, 3545 John Hopkins Court, Suite 250, San Diego, CA 92121. The test antibody dosing regimen was initiated once the mean tumor volume reached 50-100 mm^3. Tumor measurements were recorded two times a week until study termination, as described below.
Tumor monitoring. Once palpable, sub-cutaneous tumors were measured three times a week with a digital caliper. Tumor volumes were calculated using formula: Tumor Volume=length×width×width×1/2
Statistical analysis. Data are expressed as mean±SEM o. In experiments in which animals were euthanized due to tumor burden or body weight loss, the terminal tumor volume was carried forward for statistical analysis. […] Significance of difference over time was tested with a 2-way repeated measures ANOVA followed by Dunnett's post-hoc test. Group comparisons were conducted using 1-way ANOVA (parametric or Kruskal Wallis, as noted in the figure legends). A p value <0.05 was considered significant.
Cell culture and implantation. Mouse B16-F10 cell line was purchased from ATCC.
Treatment Regimen. Thirty (30) C57BL/6 mice (Charles River, female, 6-8 wks old) were used in this study. The animals were assigned to 3 study groups of 10 mice randomly, and housed as described in the Materials and Methods. The antibody dosing regimen is shown in Table E4 below; in brief animals received intraperitoneal injections of the control IgG antibody, positive control antibody (Bevacizumab), and anti-NRP2 antibody (as described in the Materials and Methods), administered according to the protocol below (Table E4).

Series [5] has as its target T1, Human NRP2 (aa23-855) (Homo sapiens, UniProt O60462).
T1 construct: Human NRP2 (aa23-855)
T1 sequence (O60462 23-855 isoform O60462-3): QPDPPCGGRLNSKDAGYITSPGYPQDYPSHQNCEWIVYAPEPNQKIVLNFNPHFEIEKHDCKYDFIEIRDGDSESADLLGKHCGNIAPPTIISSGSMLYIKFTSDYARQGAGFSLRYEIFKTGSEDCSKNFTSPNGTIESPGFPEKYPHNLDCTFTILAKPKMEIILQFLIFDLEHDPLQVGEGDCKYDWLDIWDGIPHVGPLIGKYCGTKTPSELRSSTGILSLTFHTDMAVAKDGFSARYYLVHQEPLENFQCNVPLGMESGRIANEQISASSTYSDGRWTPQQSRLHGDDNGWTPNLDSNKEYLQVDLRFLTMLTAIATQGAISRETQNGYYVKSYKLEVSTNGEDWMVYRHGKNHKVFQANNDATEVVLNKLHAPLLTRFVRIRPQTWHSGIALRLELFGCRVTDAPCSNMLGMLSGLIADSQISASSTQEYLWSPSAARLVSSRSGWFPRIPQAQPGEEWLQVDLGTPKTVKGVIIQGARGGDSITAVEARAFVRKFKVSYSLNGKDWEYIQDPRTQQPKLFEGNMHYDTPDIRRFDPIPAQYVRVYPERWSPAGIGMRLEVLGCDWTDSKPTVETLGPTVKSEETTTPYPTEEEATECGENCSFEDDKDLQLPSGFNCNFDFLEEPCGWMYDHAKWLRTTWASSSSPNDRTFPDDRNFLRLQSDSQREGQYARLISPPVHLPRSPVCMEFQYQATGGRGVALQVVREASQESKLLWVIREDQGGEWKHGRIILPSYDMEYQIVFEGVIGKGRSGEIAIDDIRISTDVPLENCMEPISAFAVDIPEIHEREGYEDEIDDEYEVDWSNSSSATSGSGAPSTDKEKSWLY
Kind of series: SPR binding affinity of anti-NRP2 antibodies to human NRP2 antigen. The conditions noted are these: KD = kd/ka, Langmuir (1:1) model. The method, then: Anti-NRP2 antibody binding and affinity measurements. […] SPR experiments were conducted on a Bio-Rad ProteOn XPR36 Protein Interaction Array instrument. Biotinylated anti-human antibody (ThermoFisher Cat #7103302100) was immobilized on ProteOn NLC sensor chips. Anti-NRP2 antibodies were subsequently flowed over and captured by the anti-human antibody. Human NRP2 antigen protein was flowed over the captured antibody at varying concentrations (150, 50, 16.67, 5.56, 1.85 nM). The sensor chip surface was regenerated between each analyte run to remove anti-NRP2 antibodies and NRP2 protein. Data was double referenced against a surface with no anti-NRP2 antibody captured (immobilized anti-human antibody only) and a buffer only blank. Affinity constants were derived by globally fitting sensograms to a Langmuir (1:1) interaction model in the ProteOn manager software. For each anti-NRP2 antibody, data from the multiple NRP2 concentrations was fit as a single data set with dissociation rate constant (kd), association rate constant (ka) and Rmax values as global parameters. The reported binding affinity is the equilibrium dissociation constant (KD) calculated from kd/ka. • Running buffer: 50 mM HEPES, 300 mM NaCl, 5 mM CaCl2), 0.005% Tween-20, pH 7.4 • Immobilized antibody: CaptureSelect Human Fab-kappa Kinetics Biotin Conjugate, ThermoFisher Cat #7103302100 • Antigen: Human NRP2 (aa23-855) with C-terminal Avi-, Myc- and His-tags • Regeneration buffer: 10 mM glycine pH 2.0
For orientation: Surface plasmon resonance follows binding to a sensor surface in real time, without labels.

Series [6] relates to NRP2/PLXNA1. Kind of series: Split-luciferase receptor dimerization assay, NRP2/PLXNA1 with SEMA3F. The class given is cell-based, human. As to conditions: antibody 100 nM; ligand induced dimerization. The protocol: (§1) To further extend the assessment of the biological activity of the anti-NRP2 antibodies, their activity was assessed in a receptor dimerization assay. In brief, vectors encoding a split luciferase pBiT1.1 and pBiT2.1 were obtained from Promega corporation (Madison, Wisconsin). The complete extracellular domain and transmembrane helices of NRP2a (version 2), NRP2b (version 5) (See table N1), FLT4 (VEGFR3), KDR (VEGFR2), and plexin A1 (PLXNA1) were cloned into the vectors and screened for optimal orientation, receptor density, and ligand induced dimerization, following established methods. Expi293 cells (Fisher) were transfected at 1 million cells/mL ˜20 hours prior to the assay with NRP2 and a co-receptor at equal mass amounts. Cells were counted, and 100,000 live cells were plated in a well of a white luminometer plate in Live Cell Imaging Solution (Fisher). Nano-Glo assay substrate (Promega) was added, and the plate was read on a Glomax 96 luminometer at room temperature to establish baseline luminescence. Antibodies were added to the well at 100 nM and the plate was again read to establish a new baseline and monitor the effects of the antibodies on spontaneous receptor dimerization. Depending on the receptor pair, typically 200 nM SEMA3F-p95 (aTyr Pharma), 2 nM VEGF-C(R&D Systems, Minnesota), or 2 nM VEGF165 (R&D Systems, Minnesota) were then added and the plate was again read to measure dimerization of receptors. Normalized responses for each individual well were calculated to the time point prior to addition of ligand, then normalized to no-antibody/no-ligand (baseline signal). Replicates were then processed to give average response and standard deviation. Results are summarized in Table E3 below, and shown graphically in FIGS. 3-10.

Series [7] has as its target T2, NRP2/FLT4(VEGFR3) (Homo sapiens, UniProt O60462).
T2 construct: The complete extracellular domain and transmembrane helices of NRP2a (version 2), NRP2b (version 5); expressed in transfected cells; host or cells: Expi293, transient co-transfection
T2 sequence (O60462 23-859 isoform O60462-3 limits assumed): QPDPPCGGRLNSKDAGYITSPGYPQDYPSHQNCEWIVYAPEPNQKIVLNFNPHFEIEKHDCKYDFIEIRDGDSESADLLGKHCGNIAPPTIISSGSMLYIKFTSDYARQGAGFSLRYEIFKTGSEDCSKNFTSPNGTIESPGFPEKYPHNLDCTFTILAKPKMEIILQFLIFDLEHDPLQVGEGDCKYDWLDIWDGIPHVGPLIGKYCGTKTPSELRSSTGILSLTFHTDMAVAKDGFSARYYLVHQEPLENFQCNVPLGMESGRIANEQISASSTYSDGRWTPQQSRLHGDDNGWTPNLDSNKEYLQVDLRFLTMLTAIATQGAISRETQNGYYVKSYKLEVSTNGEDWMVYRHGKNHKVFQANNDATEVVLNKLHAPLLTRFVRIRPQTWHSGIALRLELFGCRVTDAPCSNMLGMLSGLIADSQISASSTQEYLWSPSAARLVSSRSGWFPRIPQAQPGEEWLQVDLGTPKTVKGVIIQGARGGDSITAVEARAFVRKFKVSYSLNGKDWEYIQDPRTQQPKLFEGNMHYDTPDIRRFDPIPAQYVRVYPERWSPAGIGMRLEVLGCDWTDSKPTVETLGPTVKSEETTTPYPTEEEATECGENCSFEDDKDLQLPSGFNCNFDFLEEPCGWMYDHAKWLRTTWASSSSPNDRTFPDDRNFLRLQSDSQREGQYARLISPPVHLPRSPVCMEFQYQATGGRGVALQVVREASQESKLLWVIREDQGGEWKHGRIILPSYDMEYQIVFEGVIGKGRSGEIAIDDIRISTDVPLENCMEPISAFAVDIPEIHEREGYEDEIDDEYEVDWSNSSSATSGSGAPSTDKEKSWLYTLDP
Put plainly: Split-luciferase receptor dimerization assay, NRP2/FLT4 with VEGF-C. The class given is cell-based. As to conditions: antibody 100 nM; ligand induced dimerization. The protocol: as §1

In the case of `N.N.[Cl][Pt][Cl]` [cisplatin, Cisplatin], the body weight entry in series [1] is reported as “significant loss in body weight”.

B1: aNRP2-28v2/4: mouse surrogate VEGF blocking antibody recognizing mouse NRP2, functional surrogate for aNRP2-10v10; CDRs SEQ ID NOs: 63-68 (antibody, V domains shown)
VH: QSVKESEGGLFKPTDTLTLTCTVSGFSLSTYSISWVRQAPGNGLEWIGIIGDAGGIIYATWAKSRSTITRSTALNTVTLKMTGLTAADTATYFCARDGTAFDIWGPGTLVTVSS
VL: AYDMTQTPASVEVVVGGTVTIKCQASQSIYSKLGWYQQKPGQPPKLLIYRASTLASGVSSRFKGSGSGTEYTLTISGVQCDDAATYYCQQDYSYINVDNIFGGGTEVVVK
The Kd is the constant that tells how readily two partners part at equilibrium. Higher therefore signals lower affinity. Turning to B1, the “toxicity from animal body weight measurements and observations” value in series [2] (10 mg/kg IP) is given as “no evidence of toxicity”. Also, the “metastatic nodules in the lung at termination” value in series [2] (10 mg/kg IP days -1 to 23, compared to IgG control, p≤0.05) is “reduction in metastatic nodules in the lung”. In series [3], the “neo-lymphangiogenesis, % Lyve-1+ area of cornea” value is “inhibits neo-lymphangiogenesis; also recorded: can inhibit neolymphangiogenesis”. Also, in series [4] (25 mg/kg IP BIW), the terminal tumor weights entry was “lowest terminal tumor weights”; the “toxicity from animal body weight measurements and observations” value is “no evidence of toxicity”. For the same molecule, the “tumor growth (tumor volume)” value in series [4] (25 mg/kg IP BIW, compared to IgG control group, p<0.05 on Day 14, 16 and 19) is recorded as “tumor growth inhibition”. In addition, the “anti-tumor activity relative to Bevacizumab (positive control)” value in series [4] (aNRP2-28 25 mg/kg vs Bevacizumab 5 mg/kg, IP BIW) is on record as “more potent anti-tumor activity”. Also, binding in series [5] was put at a Kd of 0.0599 nM.

B2: aNRP2-14v9: humanized, affinity matured anti-NRP2 antibody, target domain a2; VH SEQ ID NO: 53, VL SEQ ID NO: 54 (antibody, V domains shown)
VH: QLQLVESGGGVVQPGRSLRLSCTVSGFSLTSYGVHWVRQAPGKGLEWVGLIWSGGSTDYSPAFISRFTISEDNSKSTVYLQMNSLRAEDTAVYFCARNSYSSGYYAMDYWGQGTTVTVSS
VL: DIQLTQSPSFLSASVGDRVTITCKASQNVGHAVAWYQQKPGKAPKLLIYSASNRYTGVPSRFSGSGSGTEFTLTISSLQPEDFATYYCQQYSRYPPYTFGGGTKVEIK
modifications: Variable heavy chain region; Light chain variable region
For the molecule B2, in series [6], the “effect on NRP2-plexin heterodimerization (in words)” value is “extremely potent inhibition”. For the same molecule, the “effect on NRP2-VEGFR3 (FLT4) heterodimerization (in words)” value in series [7] was “no significant impact”. Moreover, the affinity in series [5], expressed as Kd, was 0.15 nM.
